{"source": "paper PMC3909270", "about": "“The basic keratin 10-binding domain of the virulence-associated pneumococcal serine-rich protein PsrP adopts a novel MSCRAMM fold” (Open Biology, 2014)", "parents": {"B1": {"name": "Strep-Tag-II BR_(187–385) (KRT10-binding domain of the pneumococcal serine-rich repeat protein PsrP) [S. pneumoniae TIGR4] / KRT10 tail-rod-2B domain (KRT10-TRD) [human] (parent complex)", "chain 1": "FSGNTIVNGAPAINASLNIAKSETKVYTGEGVDSVYRVPIYYKLKVTNDGSKLTFTYTVTYVNPKTNDLGNISSMRPGYSIYNSGTSTQTMLTLGSDLGKPSGVKNYITDKNGRQVLSYNTSTMTTQGSGYTWGNGAQMNGFFAKKGYGLTSSWTVPITGTDTSFTFTPYAARTDRIGINYFNGGGKVVESSTTSQSLS", "chain 2": "LKQSLEASLAETEGRYCVQLSQIQAQISALEEQLQQIRAETECQNTEYQQLLDIKIRLENEIQTYRSLLEGEGSSGGGGRGGGSFGGGYGGGSSGGGSSGGGHGGGHGGSSGGGYGGGSSGGGSSGGGYGGGSSSGGHGGSSSGGYGGGSSGGGGGGYGGGSSGGGSSSGGGYGGGSSSGGHKSSSSGSVGESSS"}}, "data": [{"variants_of": "B1", "experiment": "ELISA; KRT10-TRD coated in wells of ELISA plates; parent: 1; read off a plot", "units": {"response": "normalized absorbance"}, "values": [{"variant": "chain 1 FSGNTIVNGAPAINASLNIAKSETKVYTGEGVDSVYRVPIYYKLKVTNDGSKLTFTYTVTYVNPKTNDLGNISSMRPGYSIYNSGTSTQTMLTLGSDLGKPSGVKNYITDKNGRQVLSYNTSTMTTQGSGYTWGAGAQMNGFFAKKGYGLTSSWTVPITGTDTSFTFTPYAARTDRIGINYFNGGGKVVESSTTSQSLS", "note": "[chain 1 N135A]", "response": "~1.1"}, {"variant": "chain 1 FSGNTIVNGAPAINASLNIAKSETKVYTGEGVDSVYRVPIYYKLAVTNDGSKLTFTYTVTYVNPKTNDLGNISSMRPGYSIYNSGTSTQTMLTLGSDLGKPSGVKNYITDKNGRQVLSYNTSTMTTQGSGYTWGNGAQMNGFFAKKGYGLTSSWTVPITGTDTSFTFTPYAARTDRIGINYFNGGGKVVESSTTSQSLS", "note": "[chain 1 K45A]", "response": "~0.97"}]}]}
